In the supplement of paper PMC10724198:
± gives the standard deviation of the averaged measurements.

Tested on: Saccharomyces cerevisiae
Assay: protein stability index of tFT-peptide fusion (C-terminal peptide) (PSI (0-1 scale)); higher = more stable (slower turnover)
Conditions: genetic background: wild type; temperature: 37 C
Method: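 MPS profiling in S. cerevisiae of the tFT-X12 degron library: putative degron peptides plus stable controls, 12 aa, fused to the C-terminus of a sfGFP-mCherry timer. Cells are FACS-sorted into 8 mCherry/sfGFP bins and deep-sequenced. PSI runs from 0 (unstable) to 1 (stable). Backgrounds are wild type, das1Δ and doa10Δ at 30 °C, and wild type, das1Δ, cdc34-1 and cdc53-1 at 37 °C; 2-3 technical replicates each.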

Sequence	protein stability index
WFFLFGFVFFFR	0.4444 ± 0.0032
WFGCSTVWVRVQ	0.0591 ± 0.021
WFIPRSVCRWLF	0.116 ± 0.023
WFSAGSCRWVLC	0.321 ± 0.027
WGAHRVRVSRIL	0.516 ± 0.0052
WLCVFVFGIFFV	0.266 ± 0.0091
WLFRCFLFVVGG	0.4363 ± 0.0023
WLLVVCRGLVFR	0.405 ± 0.018
WQGWFLSLCIWV	0.392 ± 0.025
WQVPYQRLAILF	0.346 ± 0.011
WRCLHLVYLFFH	0.303 ± 0.013
WRVRFRLLAGFC	0.206 ± 0.016
WSFPFFLLPFLF	0.305 ± 0.021
WSFYVVGRLLVN	0.154 ± 0.015
WSHVPLAPLSCF	0.42596 ± 0.00033
WSVCLLLLGRFC	0.554 ± 0.026
WTRAHWFFQFFV	0.0858 ± 0.015
WVVVLFAYRGLR	0.559 ± 0.041
WYMYVRMASFLV	0.44 ± 0.0072
YCDPSLIWLYLM	0.275 ± 0.031
YFICLSLVLFSY	0.306 ± 0.021
YIILLSRKCAFC	0.586 ± 0.029
YKLRAVFVCSVT	0.445 ± 0.028
YLYSSSPWILHG	0.52 ± 0.023
YTVRRVWLVRSR	0.4934 ± 0.0033
YVGILCTGILTV	0.549 ± 0.013
YVSSCLLWLCFV	0.457 ± 0.011
YYVIFHLFSFLI	0.493 ± 0.026

Tested on: Saccharomyces cerevisiae
Assay: as above
Conditions: genetic background: wild type; temperature: 30 C

Sequence	protein stability index
VSLIFCLFFLSC	0.442 ± 0.013
VSTVCLDFSPFL	0.755 ± 0.043
VTSVARVVLHLL	0.3069 ± 0.0026
VVCPCIIYVPGV	0.466 ± 0.022
VVFLLGPLVCGG	0.44 ± 0.025
VVFVGRSIVVLT	0.419 ± 0.047
VVFWFPFVLRCC	0.065 ± 0.017
VVFWWGHLLVSA	0.142 ± 0.024
VVLVVVWWGGVE	0.3931 ± 0.00072
VVMASSIIVVAG	0.2528 ± 0.001
VVVLFGRLVVIC	0.431 ± 0.048
VVVYWGSLKRVC	0.263 ± 0.041
VWFCCLFFCFFV	0.404 ± 0.028
VWSWFVIYFFFC	0.368 ± 0.0054
VYCTFLFAYTLP	0.483 ± 0.0062
VYEVELSVRVTV	0.522 ± 0.063
VYVVLGTVYVTY	0.273 ± 0.025
WDPKISVFVLID	0.403 ± 0.0096
WFAHGLRHFRIL	0.375 ± 0.068
WFFLFGFVFFFR	0.411 ± 0.077
WFGCSTVWVRVQ	0.147 ± 0.0067
WFIPRSVCRWLF	0.135 ± 0.0067
WFSAGSCRWVLC	0.24 ± 0.0076
WGAHRVRVSRIL	0.509 ± 0.016

Sequence	protein stability index
WLCVFVFGIFFV	0.204 ± 0.016
WLFRCFLFVVGG	0.422 ± 0.0045
WLLVVCRGLVFR	0.319 ± 0.046
WQGWFLSLCIWV	0.348 ± 0.014
WQVPYQRLAILF	0.309 ± 0.017
WRCLHLVYLFFH	0.286 ± 0.0091
WRVRFRLLAGFC	0.173 ± 0.018
WSFPFFLLPFLF	0.296 ± 0.034
WSFYVVGRLLVN	0.124 ± 0.0045
WSHVPLAPLSCF	0.4567 ± 0.0039
WSVCLLLLGRFC	0.466 ± 0.018
WTRAHWFFQFFV	0.171 ± 0.0033
WVVVLFAYRGLR	0.458 ± 0.088
WYMYVRMASFLV	0.375 ± 0.026
YCDPSLIWLYLM	0.249 ± 0.02
YFICLSLVLFSY	0.303 ± 0.069
YIILLSRKCAFC	0.503 ± 0.017
YKLRAVFVCSVT	0.392 ± 0.037
YLYSSSPWILHG	0.383 ± 0.045
YTVRRVWLVRSR	0.423 ± 0.0074
YVGILCTGILTV	0.438 ± 0.0072
YVSSCLLWLCFV	0.376 ± 0.034
YYVIFHLFSFLI	0.392 ± 0.094

Tested on: Saccharomyces cerevisiae
Assay: as above
Conditions: genetic background: das1 deletion; temperature: 30 C
Method: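 MPS profiling in S. cerevisiae of the yeast C-terminome library: the last 12 aa of each annotated ORF are fused to the C-terminus of a sfGFP-mCherry timer, after a GGGS linker. Cells are FACS-sorted into 8 mCherry/sfGFP bins and deep-sequenced. PSI runs from 0 (unstable) to 1 (stable); wild type and das1Δ backgrounds, two technical replicates each.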

Sequence	protein stability index
AATNNLFIFSAL [CDC55 C-terminal 12 aa]	0.732 ± 0.0084
ACHMAKPLKLPT [YHR032C-A C-terminal 12 aa]	0.679 ± 0.017
ACILMAISQFNS [KSH1 C-terminal 12 aa]	0.619 ± 0.013
ADESKKEITTGR [MPC2 C-terminal 12 aa]	0.714 ± 0.022
AEFFTKFDELVV [EHT1 C-terminal 12 aa]	0.6616 ± 0.0027
AEKRDALLKEDA [RPL19A C-terminal 12 aa]	0.6845 ± 0.0059
AFIFGNYKDILT [RGA1 C-terminal 12 aa]	0.755 ± 0.01
AHNFKVPETSKG [PAN2 C-terminal 12 aa]	0.696 ± 0.032
AHQKEILHSVSN [YML6 C-terminal 12 aa]	0.695 ± 0.016
AITLAWLAHALT [YHL037C C-terminal 12 aa]	0.4375 ± 0.0012
AITSAQELLDSK [RBL2 C-terminal 12 aa]	0.687 ± 0.024
AKFFIPFSHSSP [YPL185W C-terminal 12 aa]	0.729 ± 0.01
AKTKFCCCIPFK [YOR376W-A C-terminal 12 aa]	0.7168 ± 0.0059

Same assay, conditions: genetic background: wild type; temperature: 30 C

Sequence	protein stability index
AATNNLFIFSAL [CDC55 C-terminal 12 aa]	0.713 ± 0.073
ACHMAKPLKLPT [YHR032C-A C-terminal 12 aa]	0.673 ± 0.029
ACILMAISQFNS [KSH1 C-terminal 12 aa]	0.6333 ± 0.0061
ADESKKEITTGR [MPC2 C-terminal 12 aa]	0.653 ± 0.018
AEFFTKFDELVV [EHT1 C-terminal 12 aa]	0.666 ± 0.045
AEKRDALLKEDA [RPL19A C-terminal 12 aa]	0.699 ± 0.0074
AFIFGNYKDILT [RGA1 C-terminal 12 aa]	0.7204 ± 0.0034
AHNFKVPETSKG [PAN2 C-terminal 12 aa]	0.677 ± 0.022
AHQKEILHSVSN [YML6 C-terminal 12 aa]	0.726 ± 0.034
AITLAWLAHALT [YHL037C C-terminal 12 aa]	0.39 ± 0.011
AITSAQELLDSK [RBL2 C-terminal 12 aa]	0.72 ± 0.0079
AKFFIPFSHSSP [YPL185W C-terminal 12 aa]	0.705 ± 0.051
AKTKFCCCIPFK [YOR376W-A C-terminal 12 aa]	0.721 ± 0.078
